# Patent publication US20260183393A1, “IMMUNOSUPPRESSANT-RESISTANT MODIFIED ALLOGENEIC MODIFIED IMMUNE CELLS AND METHODS FOR USE THEREOF” (Beam Therapeutics Inc., priority 2023, published 2026)
# “Also recorded” adds a separate entry of the source.
# B1: TSBT×1538: guide polynucleotide targeting FKBP1A, SEQ ID NO: 501 (nucleic acid)
# guide: CTCACCGTCTCCTGGGGAGAGTTTTAGAGCTAGAAATAGCAAGTTAAAATAAGGCTAGTCCGTTATCAACTTGAAAAAGTGGCACCGAGTCGGTGCTTTT
# modifications: chemistry not given here
# What was measured:
# 19CAR-T cells = assay: CAR-T cell proliferation assay; assay type: cell-based, human; conditions: 100 nM rapamycin
# From the text: Primary human T cells were activated using an anti-CD3/CD28/CD2 reagent. Two-days after being contacted with the reagent, the T cells were edited using a base editor system containing the guide polynucleotide TSBT×1538 and the base editor ABE8.20m using electroporation, as described above. Following electroporation, both the T cells were transduced with a lentiviral vector encoding an anti-CD19 CAR (19CAR) and allowed to expand in culture for approximately 7 days before being cryopreserved for later analysis. Unedited anti-CD19 CAR-T cells were prepared as a negative control. The 19CAR-T cells were then thawed from cryopreservation and rested overnight before being stimulated using dynabeads coated with recombinant human CD19 protein-coated at a bead-to-cell ratio of 1:1. The T cells were cultured in the presence of 100 nM of the immunosuppressant rapamycin or dimethylsulfoxide (DMSO) as a control for 6 days. The total number of T cells were enumerated using a NucleoCounter NC-200™ automated cell counter.
# Primary human T cells were activated using an anti-CD3/CD28/CD2 reagent. Two days after being contacted with the reagent, the T cells were edited using a base editor system containing the guide polynucleotide TSBT×1538 and the base editor ABE8.20m using the electroporation protocol described above. Both edited and unedited T cells were transduced with a lentiviral vector encoding an anti-CD19 CAR (19CAR) and allowed to expand in culture for approximately 7 days before being cryopreserved for later analysis. Unedited 19CAR-T cells were used as a control. For analysis, the 19CAR-T cells were thawed and rested for 72 hours before labeling using a CellTrace™ Far Red (CTFR) dye. After CTFR labeling, the 19CAR-T cells were stimulated using an Immunocult™ Human CD3/CD28/CD2 universal T cell activator in the presence of 100 nM of the immunosuppressant agent rapamycin or in the presence of DMSO (control) and allowed to incubate for an additional 3 days. Following the three-day incubation, the T cells were analyzed using flow cytometry to measure dilution of CTFR dye as an indicator of cell proliferation.
# The following day, T cells were washed, counted and 1×10^4 cells were seeded in triplicate into a 96-well flat bottom plate alone or with 1×10^4 JeKo-1.GFP^+ tumor cells. […] On day 7, samples were analyzed by flow cytometry and 19CAR-T cells were enumerated using CountBright Counting Beads (Thermo Fisher Scientific) following the manufacturer's protocol.
# FKBP1A polynucleotide = assay: Base editing of FKBP1A in primary human T cells, next-generation sequencing; assay type: cell-based; conditions: ABE8.20m mRNA and sgRNA electroporated into activated primary human T cells; NGS
# From the text: FIG. 3 provides a bar graph showing maximum A to G and C to T base editing within an FKBP1A polynucleotide achieved using base editor systems containing one of the guide polynucleotides indicated along the x-axis (see Table 1 for nucleotide sequences) and either an adenosine deaminase base editor (ABE) or a cytidine deaminase base editor (CBE), as indicated. The ABE was ABE8.20m and the CBE was rBE4. Primary human T cells were thawed and activated in vitro using an anti-CD3/CD28/CD2 reagent. On day 2 following contacting with the reagent, the T cells were washed and resuspended in P3 Buffer (Lonza) and plated in 96-well electroporation plates containing 2 μg ABE8.20m or rBE4 (CBE) and 2 μg of the indicated guide polynucleotide targeting the FKBP1A (FKBP prolyl isomerase 1A) polynucleotide. Plates were electroporated using a DH-102 setting on a Lonza Nucleofector™ 96-well plate unit. The electroporated cells were incubated for 3 days. […]
# Healthy donor adult human leukopaks were commercially obtained from HemaCare (Charles River). […] Two-days post-activation, T cells were counted, washed with sterile PBS (Gibco) and resuspended in P3 buffer (Lonza) at 10^7 cells mL^−1. […]
# FKBP1A protein = assay: Western blot of FKBP1A protein in edited T cells; assay type: cell-based, human; conditions: T cells edited with ABE8.20m and TSBT×1538 sgRNA
# Method: Primary human T cells were activated with anti-CD3/CD28/CD2 reagent. On day 2 following contacting with the reagent, the T cells were contacted with the TSBT×1538 sgRNA and ABE8.20m and subsequently incubated for approximately 5 days. Unedited cells were used as a negative control. Following the approximately 5-day incubation, the cells were harvested and cell-associated protein was extracted to be evaluated in the Western blot analysis. Protein samples from the edited and unedited cells were contacted with a rabbit anti-FKBP1A or mouse anti-GAPDH (control used to normalize protein concentrations) antibodies, followed by staining with secondary anti-rabbit (HRP) and anti-mouse (NIR) antibodies, respectively. Protein was analyzed using the Jess automated Western blot analysis device available from ProteinSimple.
molecule,measurement,setting,value
B1,cell proliferation in response to a universal T cell activator,"19CAR-T cells; 19CAR-T cells edited with ABE8.20m and the guide, 3 days, CTFR dilution",improved cell proliferation
same,proliferation in the presence of rapamycin,"19CAR-T cells; anti-CD19 CAR-T cells edited with ABE8.20m and the guide, CD19-coated dynabeads 1:1, 6 days",improved proliferation
same,mean on-target genomic editing efficiency,FKBP1A polynucleotide,93.7%
same,FKBP1A protein expression,FKBP1A protein,knock-out of FKBP1A protein expression; also recorded: reduced protein expression
